“And” between values parts separate entries of the source, which are not always exact repeats. Equal entries are not always repeated.
Target: the molecule itself
Assay: SEC; fluorescence-detection size-exclusion chromatography (FSEC); crude membranes (2 mg/ml) solubilized in CYMAL-5 or DDM at a detergent:protein ratio of 3, 50 mM phosphate pH 7.5, 10 mM imidazole, 500 mM NaCl, 4°C; Superose 12 10/300 GL; GFP fluorescence of fractions

B1: human Aquaporin-1 C-terminally tagged with yeast enhanced GFP and eight histidines (hAQP1-GFP-8His) (natural protein, UniProt P29972 1-269, looked up)
chain: MASEFKKKLFWRAVVAEFLATTLFVFISIGSALGFKYPVGNNQTAVQDNVKVSLAFGLSIATLAQSVGHISGAHLNPAVTLGLLLSCQISIFRALMYIIAQCVGAIVATAILSGITSSLTGNSLGRNDLADGVNSGQGLGIEIIGTLQLVLCVLATTDRRRRDLGGSAPLAIGLSVALGHLLAIDYTGCGINPARSFGSAVITHNFSNHWIFWVGPFIGGALAVLIYDFILAPRSSDLTDRVKVWTSGQVEEYDLDADDINSRVEMKPK
notes: human Aquaporin-1 (hAQP1), 269 amino acids; coding part of the cDNA without a translational stop codon, fused in frame to yeast enhanced GFP and eight histidines; not N-glycosylated in yeast; Order on the chain: hAQP1, yEGFP, 8 His; also called hAQP1-GFP-His8; Aquaporin-1-GFP; source: S. cerevisiae PAP1500 (plasmid pPAP8230), crude membranes solubilized in CYMAL-5 or DDM; also purified (CYMAL-5, …)
In the case of B1, the “stoichiometry N” value is reported as 4 and > 4.

Reference: publication PMC3569440, “Recombinant Production of Human Aquaporin-1 to an Exceptional High Membrane Density in Saccharomyces cerevisiae” (PLoS ONE, 2013)
